Measurements published in article PMC5016687, “The Effectors and Sensory Sites of Formaldehyde-responsive Regulator FrmR and Metal-sensing Variant” (The Journal of Biological Chemistry, 2016).

Columns and labels:
RcnR [1] = molecular target: RcnR (Salmonella enterica, UniProt Q7CPV3); assay: biochemical
FrmR [2] = molecular target: T1, FrmR (Salmonella enterica, UniProt A0A0H3NLH8, P2S); assay: biochemical
T1 construct: gene SL1344_1558

FrmR [3] = molecular target: T2, FrmR (Salmonella enterica, UniProt A0A0H3NLH8, C35A); assay: biochemical
T2 construct: gene SL1344_1558

FrmR [4] = molecular target: T3, FrmR (Salmonella enterica, UniProt A0A0H3NLH8); assay: biochemical
T3 construct: gene SL1344_1558

[5] = molecular target: FrmR^E64H (Salmonella enterica serovar Typhimurium FrmR with Glu64 to His) (Salmonella enterica serovar Typhimurium strain SL1344); assay: crystal structure; FrmR E64H 0.5 mM in 400 mM NaCl, 1 mM EDTA, 1 mM DTT, 10 mM HEPES pH 7.0; crystals in 20 mM NaCl, 23% (w/v) PEG 4000, 10 mM BisTris pH 6.5, hanging drop vapor diffusion at 20 °C; one homotetramer in the asymmetric unit; 2.19 Å
FrmRP2S = FrmRP2S (Salmonella enterica serovar Typhimurium …, UniProt A0A0H3NLH8 1-91, P2S); assay: fluorescence anisotropy; 5 mM EDTA, apo; 10 mM HEPES pH 7.0, 60 mM NaCl, 240 mM KCl, 5 mM EDTA (or 5 uM NiCl2/CoCl2), 25 C, 10 nM DNA; anaerobic except FrmRC35A; Kd per tetramer (two nondissociable tet); details: protein: recombinant; chain copies: 8
FrmRE64H = FrmRE64H (Salmonella enterica serovar Typhimurium …, UniProt A0A0H3NLH8 2-91, E64H); assay: as above; details: protein: recombinant; chain copies: 8
FrmR [6] = molecular target: FrmR (Salmonella enterica serovar Typhimurium …, UniProt A0A0H3NLH8 2-91); assay: fluorescence anisotropy; 800 uM GSH, 5 mM EDTA; 10 mM HEPES pH 7.0, 60 mM NaCl, 240 mM KCl, 5 mM EDTA (or 5 uM NiCl2/CoCl2), 25 C, 10 nM DNA; anaerobic except FrmRC35A; Kd per tetramer (two nondissociable tet); details: protein: recombinant; chain copies: 8
RcnRS2P = RcnRS2P (Salmonella enterica serovar Typhimurium …, UniProt Q7CPV3 1-90, S2P); assay: fluorescence anisotropy; 5 mM EDTA, apo; 10 mM HEPES pH 7.0, 60 mM NaCl, 240 mM KCl, 5 mM EDTA (or 5 uM NiCl2/CoCl2), 25 C, 10 nM DNA; anaerobic except FrmRC35A; Kd per tetramer (two nondissociable tet); details: protein: recombinant; chain copies: 8; label: 5'-HEX on strand 1; blunt
RcnR [7] = molecular target: T4, RcnR (Salmonella enterica serovar Typhimurium …, UniProt Q7CPV3 1-90); assay: as above; details: protein: recombinant; chain copies: 8; label: 5'-HEX on strand 1; blunt
T4 sequence: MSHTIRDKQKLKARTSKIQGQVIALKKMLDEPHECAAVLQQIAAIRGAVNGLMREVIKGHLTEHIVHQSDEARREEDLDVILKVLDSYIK

Molecule: C=O [formaldehyde]
- Kd (RcnR [1]): > 100000 nM
- Kd (FrmR [2]): > 50000 nM
- Kd (FrmR [3]): > 100000 nM
- Kd (FrmR [4]): 10000 to 20000 nM

Molecule: FrmR^E64H (Salmonella enterica serovar Typhimurium FrmR with Glu64 to His) (natural protein)
- stoichiometry N [5]: 4

B1: frmRAPro (dsDNA)
DNA 1: TTCTGATAGTATACCCCCCTATAGTATATGGAG
DNA 2: CTCCATATACTATAGGGGGGTATACTATCAGAA
- Kd (FrmRP2S): 150 nM
- binding result (FrmRE64H): binds
- binding signal (FrmR [6]): ~2.5 fold tighter Kd vs apo

B2: rcnRAPro (dsDNA)
DNA 1: TACTCCCCCCCAGTATAGAATACTACCCCCCAGTA
DNA 2: TACTGGGGGGTAGTATTCTATACTGGGGGGGAGTA
- Kd (RcnRS2P): 160 nM
- Kd (RcnR [7]): 150 nM
